Test results as given in patent publication US20060099689A1.

Assays:
Assay in all cases: cell-based or functional assay
[1] = target: H-GST-DEVD/X-mLIF with X = E (murine) (UniProt P09056)
[2] = target: H-GST-DEVD/X-mLIF with X = proline (P) (murine) (UniProt P09056)
[3] = target: H-GST-DEVD/X-mLIF with X = D (murine) (UniProt P09056)

- inhibition of processing [1]: 25%
- inhibition of processing [2]: 75%
- inhibition of processing [3]: 25%
Substance: murine Caspase-3 (from UniProt P70677 29-175; P70677 176-277) (enzyme)
